Measurements reported in a protein production outcome set (Wang et al. 2014).

Assay: label from the status in PepcDB records

Sequence | protein production
MEKKFLDILVCPVTKGRLEYHQDKQELWSRQAKLAYPIKDGIPYMLENEARALSEEELKALEHHHHHH | not failed
AQGVGVEAILLLRRECQASHEDALHLGLAEHAPVIELQTLRKLDGQAVSLIFHRYSAVYHELLADYQGGSVRQYLAECGLPLSRAQSLIGARLPSREEAGLLLMPRHMPALTVLTVSCDGAGQPVELSRSVSRSDRFQYQVATAIPTR | not failed
MPTICEFLGYKVYMFYQDHSPPHIHVIGKGFRAALSIPEGKLLAGTLPRRVQGVAKMWVRQEATALMQNWLRAEAGEVLQQVKPPEGWLEHHHHHH | failed
MDTMDTLRAFLRVAELGSFTRAAETLGLPKASVSTAVQRLEASLGTQLLHRTTRRVQLTADGTAFYQRSRDLLDDMDELQGMFQRDHSQLRGRLRVDMSAGIARQFVIPALPAFLAQHPQLEIEISGTDRRVDLVREGFDCVLRVGTVEDTSLVGRPLGVLRIINVASAQYLAQRGVPQTLEDLAQHDLVHYVSTLGQRSPGFEYHDGAQYHWLPMRGPVTVNNGDAYLAAARAGLGIIQAPASPLQAHLDSGVLVEVLAQMAPEPMPVTLLYAQRRHLPQRVRLFMDWIAQVMAPHLEPHLP | failed
MISNEHINTQNFWYQLVEKMAIGVLVINNEGQILYANDYAVQLFGAIRTELIGTNFLYPMAADETQEVEILKSSNEILTAHMTVRKSIWENRQVWIISLFDIT | failed
IGIWFTGTDGRYHFVNKTFCNLVGIEEEDMLNTPSSNLAELLGSEIAHNCLDSDRAALGQDLAHVSYETIPRLNAKPYLLEITKVKLKNTR | failed
ESELACVIALQDITLRVQETERLEKMLEHLPVCMVIMNQNDEVEQINQTGIELLGFERDEIVGNPVDLFIPQEQVESHKALLKKFFQEETVIDTRSLERDFKVKHKSGKLIEIQAVYTPVHFHN | failed
MATLKVSDSVPAPSDDAEQLRTAFEGWGTNEDLIISILAHRSAEQRKVIRQAYHETYGEDLLKTLDKELSNDFERAILLWTLEPGERDALLANEATKRWTSSNQVLMEVACTRTSTQLLHARQAYHARYKKSLEEDVAHHTTGDFRKLLVSLVTSYRYEGDEVNMTLAKQEAKLVHEKIKDKHYNDEDVIRILSTRSKAQINATFNRYQDDHGEEILKSLEEGDDDDKFLALLRSTIQCLTRPELYFVDVLRSAINKTGTDEGALTRIVTTRAEIDLKVIGEEYQRRNSIPLEKAITKDTRGDYEKMLVALLGEDDA | not failed
MQTSFCVLVSIIERMPTWNDIKVRNPQHSHNYAKRWENLEAEGNDINGEARLIDALVQRGSKILDAGCGQGRVGGYLSARGHIVTGIDIDDYLISEAEKKFPSATWHVGDLGSESIPDQGFDIAVCAGNVITFIEPDKQEAALAHIFEALRPNGRCIIGFGAGRGYVFPQFFEDARNVGFVIENNFESWGLNPLTNRSQFLVAFLRKPELEHHHHHH | failed
MSEDAWKVNLIGNDEVHDLYTIVGNAAKQSMARDTDPMVSTILAYEGDWRKVFKRNTMTTFYGSKGFGMAQQHMDDLMEPLSREVMQKKRAKHPFGQTRKEHHAASRLLAAHAAAAIKGEIPLAIKAMEFIQKLSAMMAHEGKPLEWTTPIGLPWSNRYHDPVTERVNLWMHDHGVRRPFRPVVADGYKKTINKNHSVNGSAPNFVHALEHHHHHH | failed
MASKSSFMATFNIVTLMLMVASSTVTARPLMKPSMGTSSPTTSLVYRLKLDEDTGYCWDSLMQLQHCSGELILFFLNGETYIGPGCCSAIRTIGRKCWPTMIGVLGFTAQEGDMLQGYCDGNDSDNNGEDHALASSTLPLSVNFKTTVVRSSASPSNP | failed
SAALAGVFVWDEERIQEEELQRSINEMKRLEEMSNMFQSSGVQHHPPEPKAQTEGNEDSEGKEQRWEMVMDKKHFKLWRRPITGTHLYQYRVFGTYTDVTPRQFFNVQLDTEYRKKWDALVIKLEVIERDVVSGSEVLHWVTHFPYPMYSRDYVYVRRYSVDQENNMMVLVSRAVEHPSVPESPEFVRVRSYESQMVIRPHKSFDENGFDYLLTYSDNPQTVFPRYCVSWMVSSGMPDFLEKLHMATLKAKNMEIKVKDYISAKPLEMSSEAKATSQSSERKNEGSCGPARIEYA | not failed
STGNAGEWCLMESDPGVFTELIKGFGCRGAQVEEIWSLEPENFEKLKPVHGLIFLFKWQPGEEPAGSVVQDSRLDTIFFAKQVINNACATQAIVSVLLNCTHQDVHLGETLSEFKEFSQSFDAAMKGLALSNSDVIRQVHNSFARQQMFEFDTKTSAKEEDAFHFVSYVPVNGRLYELDGLREGPIDLGACNQDDWISAVRPVIEKRIQKYSEGEIRFNLMAIVSDRKMIYEQKIAELQRQLAEEPMDTDQGNSMLSAIQSEVAKNQMLIEEEVQKLKRYKIENIRRKHNYLPFIMELLKTLAEHQQLIPLVEKAKEKQNAKKAQETK | not failed
MLSGMSGGMLFIVFAWLIGHAVLRIVPTAYKPVLMVRSRGIALALSAIPLLLAYQLYEVVRVVQSQFSLSFQEAASTVIIQHPVGQSWFVVFTVTVFLGVLLLFPEKRVTANLFFVGVLLLIVSVSWVSHGTALLGWQGFVLNTSHLLASAVWIGTLLMVGWGARPLTDGLKFHRWFSLMVVCAVAVLSVSGLLLMNVIVPEYVPSWALTYGQFLLMKHLLFLPLLLFGLRHLLWLRAEKPLSVVQRSIRIESVVGCVVFFLSAFMTRQTPPHEVAETMQVEPPAWSFLLFHPEGLSVFQQLTLSLTGWGIACLVLAMIGLAASVLSLRHKSLFVFTTSSLTASLFLYVGLMLSVTPVSILVDETRYPTVEAAIQATYEDKTSIDIVLEDETEETTTVIYTVNAHDFVIEKLGIDSETDDFYRLPAAMLTVGGTSVYDEPMKIRTFQVTDGQWKETGSNYTYVTFGMIQEPKETVRLQLHYEDGSYVTELTNGVFYHVYQSDVEMSQPVIDLLAEDGTKVDQFLPAGVEQGVYCH | failed
MAPKPVAVDAGHYRGTWLEIGRMPMLLTDGCVAGYSTYRQGKSADEVLVEDGCREGTPQGKLKTINGVGKIEDFASTKAKMRVRYPLLITFNYWVLYKSPDKSWFISANPSTEDVWVYARSVPSKAKLNRMMMKVRELGYDVKKLEFPLEHHHHHH | not failed
MKVLLDTNIIVDFLSKRPVFFNEAEKIISKCRDGEIIGIVAVHTVSTLFYLLKKYVSPETLRDIFYNLFEIIEIGRADKNSVLEALKNTEFTDFEDGLQYQCALEEFVDCIITRNKKDFFSSKIPVYTPSEFLKSLLEHHHHHH | failed
LQVGKVYIFGSGHVARALVPILNYLSFYCVVVDDRPEFLTAQAFPQAEELRVIPLENLAAFIEITADDYGIVITRGHNFDFIVAKQLLETPAKYIGVMGSKHKIASQVRRLKEVGYTMTEIERIFMPIGLDIAAETPEELAISIAGELIQQRYQ | failed
MAKDKTSRKAPMGSGRDALMQAFREAQRPLRLDMLLRILGLHRKEKRTLEESLEALQAEGRILRLRGGAWGLTDHMKMVTGTLQVQRTGMGFVLPEDRRRTDIYVHPTQMGEAWHGDKVVVVLLPGGRGRNPEGRIVRILERGLKEMPARVVKRMGRQGLLCRAADARIKVHFLVDVTGLEGKPQKDDILVVSPGERVEDGLWAATAVRHLGSEDDVSVQERLVKINHGVPTEFPVPVLEEAATLPPAPGGGDFADRIDLRHMEFVTIDGARARDFDDAICVEEQGKGWRLWVAIADVSHYVRPGSAMDREALERSNSYYFPQSVEPMLPEALSNGLCSLNPRVPRLAMVAEIYFFGEGSPGKCKFYPAVIESKARLTYGQVNRALLLGDEEERLVLRPVLPMLEQAEKLARVLHQRRRERGSLDFDLPEPEIAFNIYGETVDIRRKVRHFGHQIVEEFMIAANEAVARFLTEKEADFLYRVHPEPEPEKLSALFKVLAGTDIAQGLPREASAGALQTVLQKAHGSAQEFLISRLTLRTMMQARYSPEHEGHFGLASACYCHFTSPIRRYADLVVHRALKRALGGDPGPTPAGGKLVAIADQLSQHERKAMEAEREILKRLTVLLLRSRVGETLTGVISSILDFGFFVELNEVLADGMVRLSSLDDDYYAFIPERQELRGERTGRTFRLGQQVKVRLADVNVGRLEVNLELVREEGDDTPVPTRRRSAASGRDGSGRDGSGRGGRGRSRHDATPRVKASPDASPEVSADGDMPDGDRLPPWIRAATEEDDPRDTTRTRRRRDDDASSRDGGDRRRGRSRNEGARGAGNPARGKAPRDGAGGDRKKGDGRDGKDGQAGGKPAGKGQSRKGKASSHRKGQGRVKKSDE | failed
MKILILGGTRFLGRAFVDEALQRGHEVTLFNRGTNKEVFPEVEQLIGDRNNDVSSLKNRKWDVVIDTCGFSPHHIRNVGEVLNDNIEHYVFISSLSVYKDWILHDIKEDYILQPEPTDDQIKAVENGEVSPYEYYGALKVLCEKEAEKYWPGRVLHVRAGLLSGMFDYTDRLPYWIQRVAKGGKVLVPGRKDRPVQIVDIKDVANWGLNMAENKNAGTFNVTGPNYDLTMEELLNTCKKVMNSDAEFVWVEESFMNEHNVQPWTEMPLWLPEIFSLEGETKPWKGGFTISIENAVKEGLTFRRIEETVTDVYEWMKSTDEWELKAGISGEREKELLERWYQ | failed
MVGERMWWWSSSSTKLRSNLERFLRGITPKPPSFSLSQSCKNDLNSLWIHENKDEIEYFRLSDLWDCFDEPSAYGLGSKVDLNNGESVMQYYVPYLSAIQIYTNKSTAISRIHSDVVDCESECWSDDSEIEKLSRSMSSGSSKIWDSVSDDSGYEIDGTSSLMRDKLGSIDFQYFESVKPHLRVPLTAKVNELAEKYPGLSTLRSVDLSPASWLAIAWYPIYHIPSRKTDKDLSTCFLSYHTLSSAFQGNLIEGDDEINETMKEETLCFDEGPVTKSIPLAPFGLVSYKLQGDLWRNQECGDQGRIVYLRSAADSWLKQLNVQDHHDHSFFSMNMSL | failed
MKQKLLYLCLFVTLAVVGHSYIIYRFIHDGVLFTGPNDGMEQMVPIQMYLFDNWHHGNFFYASDFGLGGDFFSDLSYYFSTNIIFIINVIVIVLLKTFITLDTTHIMFWMTNALIVSIFKSAIAMLATYLYVRYIALNKKIAVLAAFIFVISPIYFRFTVYWPFFSDVFIWLPLLLWSIERFLKSGKIGFFIIIVAITLINNFYFAYYQLLTGLIYLTIRLVFRHQADIIPRFKSFMSLFIASVIGLGCSLPFFFPAIQSFFNNRRTPFDGNVDLFEPFNQNTNVFYDNYLIVILFITGQALLSFKLYKHYYFKLFAISTLILICASFVPFIDQIFNGFSAPQKRWHYLIAFNSAVLIGLYVKYFRTISIPNYIFSSVISLSIIGLSAWYYDDVVAWVWFAPIVSLIGFLILLINESHIKLKLTHLFVLSIMILTVLVSTVFIRNQIYFEDHVKRANAYFVNASLFNTPLQQQLVKDMNTHKLEDERIDWRVNEQDNTPMYQQFKGLSIYSSIFDHHILDFYYDELKINMQEESVSRYQSTNGRQNMSSLFSIKYLMVKRYQHNIPAYFKKIKNDGQYEIYENTLNLPSVRVSNKKYNSNDLHNPIDKEHAMMDGVILNNKGASYTAKAPNLLNQTRITYKDIDNKRNHQIHASKNDSHVQIHIPKHLRQRYHDFYLTIKVKRGLPDSNFSVQINNYTNNRLYNNSTYRTGVDTQLYRTQPDKNGNINVGLSPTGNYYLDIQSLHGENYNHLKSAYAKQNNDGHYTDIKNGVKVKLGPHEKGIATINIPYREGMTAYVDNKKIKPLNVNYMMTGVPVSKDSKEIIIKYRPKYWYTVTAISIIFIIGSLSWFMRKRYKNK | failed
MVEPGVAKLTTYASKQATDMGAIYVNSKGDRIVNESNVYTTFRNAILKQADKVAYLVMDERTWKKVYDLLILHDFTPEEIKSFFENKGKRPVFVKGSLESAAEQAGIVVDELVQTVKNYQGYVQDGHDHDFGRDPKYLHQFEGETFYIIEQRLEHHHHHH | failed
MDETVAEFIKRTILKIPMNELTTILKAWDFLSENQLQTVNFRQRKESVVQHLIHLCEEKRASISDAALLDIIYMQFHQHQKVWDVFQMSKGPGEDVDLFDMKQFKNSFKKILQRALKNVTVSFRETEENAVWIRIAWGTQYTKPNQYKPTYVVYYSQTPYAFTSSSMLRRNTPLLGQELEATGKIYLRQEEIILDITEMKKACN | failed
